# Results taken from patent US20140005119A1, “COMPOSITIONS AND METHODS FOR INHIBITING THE ACTIVITY OF P110a MUTANT PROTEINS” (Case Western Reserve University, priority 2012, published 2014).
# Bridges are numbered along the chain shown (N, C = ends). Where no end group is shown, it is not given here. [ ]: non-standard residue; d: D form. S5 = C=CCCC[C@](C)(N)C(=O)O
# Molecular target: T1, interaction between p110α E545K and IRS1 (Homo sapiens, UniProt P35568)
# T1 construct: In KI DLD1 cells, IRS1 was co-immunoprecipitated with p110α E545K but not the WT p110α; endogenous in cells; host or cells: DLD1 p110α E545K 3×FLAG knock-in cells (rAAV gene targeting of the endogenous allele)
# T1 sequence (P35568 1-1242): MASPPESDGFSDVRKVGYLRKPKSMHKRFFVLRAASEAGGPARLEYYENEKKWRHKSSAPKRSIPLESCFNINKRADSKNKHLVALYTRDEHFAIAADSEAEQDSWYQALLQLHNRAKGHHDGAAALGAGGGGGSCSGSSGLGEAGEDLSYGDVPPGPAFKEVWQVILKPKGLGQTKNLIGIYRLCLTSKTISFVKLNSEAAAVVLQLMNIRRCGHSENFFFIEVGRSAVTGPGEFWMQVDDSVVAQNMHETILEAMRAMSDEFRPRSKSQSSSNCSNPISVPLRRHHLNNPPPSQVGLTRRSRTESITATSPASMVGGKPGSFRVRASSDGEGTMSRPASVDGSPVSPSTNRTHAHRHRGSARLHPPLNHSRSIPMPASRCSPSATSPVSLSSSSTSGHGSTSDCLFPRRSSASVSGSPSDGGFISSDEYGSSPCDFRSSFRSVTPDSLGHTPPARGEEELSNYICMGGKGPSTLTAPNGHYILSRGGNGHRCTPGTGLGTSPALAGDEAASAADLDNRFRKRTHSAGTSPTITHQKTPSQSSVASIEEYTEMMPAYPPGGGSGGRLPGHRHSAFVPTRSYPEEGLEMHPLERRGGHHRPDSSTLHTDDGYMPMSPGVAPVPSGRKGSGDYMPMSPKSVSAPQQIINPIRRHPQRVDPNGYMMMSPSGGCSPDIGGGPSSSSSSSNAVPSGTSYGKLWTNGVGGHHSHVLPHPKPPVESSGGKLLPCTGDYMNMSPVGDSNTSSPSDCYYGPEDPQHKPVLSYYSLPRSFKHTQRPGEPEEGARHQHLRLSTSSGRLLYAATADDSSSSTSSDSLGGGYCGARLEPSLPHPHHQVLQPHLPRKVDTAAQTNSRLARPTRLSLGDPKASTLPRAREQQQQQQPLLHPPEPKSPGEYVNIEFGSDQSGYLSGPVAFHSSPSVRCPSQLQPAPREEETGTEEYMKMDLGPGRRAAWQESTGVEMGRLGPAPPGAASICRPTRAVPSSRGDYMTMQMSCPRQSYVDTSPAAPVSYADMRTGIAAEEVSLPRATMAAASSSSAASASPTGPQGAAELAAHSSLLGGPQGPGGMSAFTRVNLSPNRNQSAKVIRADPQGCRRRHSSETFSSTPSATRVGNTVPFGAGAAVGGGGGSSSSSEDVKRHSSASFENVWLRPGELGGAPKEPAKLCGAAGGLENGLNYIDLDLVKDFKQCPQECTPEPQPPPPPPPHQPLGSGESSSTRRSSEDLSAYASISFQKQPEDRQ
# Assay: Peptide competition assay in cell lysates (anti-FLAG immunoprecipitation, anti-IRS1 blot)
# Type: binding
# Conditions: peptide added into cell lysates of p110α E545K 3×FLAG KI cells
# Experimental: FIGS. 3(A-M) illustrate: (A, B) Mapping peptides (P3, SEQ ID NO: 1; P4 SEQ ID NO: 2; P5, SEQ ID NO: 3; P6, SEQ ID NO: 4) derived from mutant p110α that inhibit interaction between IRS1 and p110α E545K. The indicated peptides were added into cell lysates made from the p110α E545K 3×FLAG KI cells. Cell lysates were immunoprecipitated with beads conjugated with anti-FLAG antibodies and then blotted with anti-IRS1 antibodies. (C) Immunoblots of cell lysates made from the p110α E545K 3×FLAG KI cells. Cell lysates were immunoprecipitated with beads conjugated with anti-FLAG antibodies and then blotted with the indicated antibodies. (D) Immunoblots of cell lysate of Myc-tagged IRS1 plasmid, which co-transfected an ABD domain deletion construct of the FLAG-tagged p110α E545K mutant (ΔABD), incubated with the indicated amount of stapled p110α mutant peptides, and then immunoprecipitated with anti-FLAG antibodies and blotted with the indicated antibodies. (J, K) Immunoblot and graph of purified recombinant p110α E545K mutant proteins mixed with the indicated components and quantified using an in vitro lipid kinase assay. (L, M) Immunoblots of the indicated cell lines serum-starved, stimulated with 1 μg/ml insulin for 30 min, and then treated with or without the indicated peptides. Cell lysates were blotted with the indicated antibodies. All error bars show mean±SEM. *p<0.05, **p<0.001, t test.
# For Co-immunoprecipitation (Co-IP), cells were harvested, washed with PBS, and then lysed in IP buffer (50 mMTris [pH 7.4], 150 mMNaCl, 5 mMEDTA [pH 8.0], 0.5% NP40, 1 mM PMSF, complete Protease Inhibitor Cocktail tablet [Roche]; supplemented with phosphatase inhibitors [1 mM Na3VO4, 20 mM NaF, 0.1 mM b-glycerophosphate, 20 mM sodium pyrophosphate] when necessary). For immunoblotting (IB) of phospho-specific proteins, unless stated otherwise, cells were lysed in urea buffer (100 mM NaH2PO4, 10 mM Tris-HCl, 8 M Urea, 1 mM Na3VO4, 20 mM NaF, 0.1 mM β-glycerophosphate, 20 mM sodium pyrophosphate, supplemented with complete Protease Inhibitor Cocktail tablet [Roche], pH 8.0). Lysates were then cleared by centrifugation (14,000 rpm, 10 min) and protein concentration in supernatants was determined with a BCA protein assay kit (Pierce, Rockford, Ill.). Equal amounts of total protein were used for IP or IB.
# For in vitro peptide competition assay, the p110α mutant-FLAG-tagged cells were grown to 90% confluency, serum-starved overnight, and lysed as described previously. Peptides were then added to the cell lysates, incubated for 30 min at 4° C. and followed by immunoprecipitation assay.
inhibition of the interaction between p110α E545K and IRS1,inhibition of the interaction between p110α E545K and IRS1 (listed as stapled polypeptide substantially homologous to the C-terminal α-helical motif o),Substance
almost completely disrupted,disrupted,H2N-SEITKQEK-D^549-FLW-S^553-HRHYC-COOH [stapled mutant peptide]
did not inhibit,,"H2N-SEITEQEKD^549-FLW-S^553-HRHYC-COOH (SEITEQEK[S5]FLW[S5]HRHYC; staple 9-13; not fully specified (N-terminus, C-terminus); printed as H2N-SEITEQEKD549-FLW-S553-HRHYC-COOH; listed as Homo sapiens) [stapled WT peptide, stapled wild-type p110α counterpart of the stapled mutant peptide, used as control, reference compound]"
